Assay results from publication PMC10491619.

Target: Exchange Protein Activated by cAMP 1, purified recombinant wild type
Assay: phase separation measured by centrifugation and A280 of the cleared supernatant; purified protein alone, with 30 uM cAMP; 5-25 uM protein at 50-250 mM NaCl, 25 mM Tris-HCl pH 8.8, 5 mM MgCl2; 20 °C, 15 min; 16,900 x g, 30 min

Chain of Exchange Protein Activated by cAMP 1, purified recombinant wild type (O95398 whole entry): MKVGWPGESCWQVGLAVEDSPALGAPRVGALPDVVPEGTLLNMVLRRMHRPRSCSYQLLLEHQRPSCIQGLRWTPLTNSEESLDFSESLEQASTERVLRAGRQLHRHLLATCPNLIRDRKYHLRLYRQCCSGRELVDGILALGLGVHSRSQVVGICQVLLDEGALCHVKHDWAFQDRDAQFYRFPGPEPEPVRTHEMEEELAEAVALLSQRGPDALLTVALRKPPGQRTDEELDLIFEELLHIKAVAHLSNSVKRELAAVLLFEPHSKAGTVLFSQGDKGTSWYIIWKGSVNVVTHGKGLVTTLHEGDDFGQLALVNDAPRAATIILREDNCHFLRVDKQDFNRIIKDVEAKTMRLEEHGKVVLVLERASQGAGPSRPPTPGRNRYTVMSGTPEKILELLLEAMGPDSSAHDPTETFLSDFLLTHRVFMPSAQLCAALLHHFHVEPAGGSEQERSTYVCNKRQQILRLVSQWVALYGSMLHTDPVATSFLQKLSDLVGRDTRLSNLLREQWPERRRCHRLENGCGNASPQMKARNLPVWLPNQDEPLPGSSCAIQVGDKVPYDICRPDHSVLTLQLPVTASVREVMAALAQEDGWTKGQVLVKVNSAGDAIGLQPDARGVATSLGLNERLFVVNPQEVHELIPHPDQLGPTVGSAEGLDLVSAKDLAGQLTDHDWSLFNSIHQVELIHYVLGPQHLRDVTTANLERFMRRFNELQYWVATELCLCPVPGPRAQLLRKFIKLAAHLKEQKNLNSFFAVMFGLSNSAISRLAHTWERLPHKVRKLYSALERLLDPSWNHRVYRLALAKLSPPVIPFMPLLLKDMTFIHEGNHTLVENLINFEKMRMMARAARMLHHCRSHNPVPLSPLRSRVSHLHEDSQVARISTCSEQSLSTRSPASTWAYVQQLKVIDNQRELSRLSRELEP

Exchange Protein Activated by cAMP 1, purified recombinant wild type (natural protein)
condensation ratio +cAMP/-cAMP at 150 mM salt: 2.5 | percent of protein in condensates (150 mM salt, with cAMP): 50%
